For the assay, the target named is T1, human VPS15, subunit of complexes I and II (human, UniProt Q99570 1-1358).
T1 construct: VPS15, human; expressed as HsVPS15-3xTEV-ZZ from the plasmid HsVPS34 + HsVPS15-3xTEV-ZZ; A 3xTEV site lies between VPS15 and ZZ; whether the tag was cut off is told only in Ohashi et al., 2016; The printed theoretical masses fit tag-free whole chains (my reckoning); also called HsVPS15; source: Expi293 cells, transfected, co-expressed with the other subunits, purified as a complex (method of …)
Description: SEC-MALS; purified, co-expressed human complex II at 0.8 mg/mL; Superose 6 10/300, 0.5 mL/min; measured 384 kDa against 386 kDa theoretical. The conditions noted are these: both partners purified. (In gel filtration, larger molecules generally elute earlier.)

T1 sequence (Q99570 whole entry, one chain of several): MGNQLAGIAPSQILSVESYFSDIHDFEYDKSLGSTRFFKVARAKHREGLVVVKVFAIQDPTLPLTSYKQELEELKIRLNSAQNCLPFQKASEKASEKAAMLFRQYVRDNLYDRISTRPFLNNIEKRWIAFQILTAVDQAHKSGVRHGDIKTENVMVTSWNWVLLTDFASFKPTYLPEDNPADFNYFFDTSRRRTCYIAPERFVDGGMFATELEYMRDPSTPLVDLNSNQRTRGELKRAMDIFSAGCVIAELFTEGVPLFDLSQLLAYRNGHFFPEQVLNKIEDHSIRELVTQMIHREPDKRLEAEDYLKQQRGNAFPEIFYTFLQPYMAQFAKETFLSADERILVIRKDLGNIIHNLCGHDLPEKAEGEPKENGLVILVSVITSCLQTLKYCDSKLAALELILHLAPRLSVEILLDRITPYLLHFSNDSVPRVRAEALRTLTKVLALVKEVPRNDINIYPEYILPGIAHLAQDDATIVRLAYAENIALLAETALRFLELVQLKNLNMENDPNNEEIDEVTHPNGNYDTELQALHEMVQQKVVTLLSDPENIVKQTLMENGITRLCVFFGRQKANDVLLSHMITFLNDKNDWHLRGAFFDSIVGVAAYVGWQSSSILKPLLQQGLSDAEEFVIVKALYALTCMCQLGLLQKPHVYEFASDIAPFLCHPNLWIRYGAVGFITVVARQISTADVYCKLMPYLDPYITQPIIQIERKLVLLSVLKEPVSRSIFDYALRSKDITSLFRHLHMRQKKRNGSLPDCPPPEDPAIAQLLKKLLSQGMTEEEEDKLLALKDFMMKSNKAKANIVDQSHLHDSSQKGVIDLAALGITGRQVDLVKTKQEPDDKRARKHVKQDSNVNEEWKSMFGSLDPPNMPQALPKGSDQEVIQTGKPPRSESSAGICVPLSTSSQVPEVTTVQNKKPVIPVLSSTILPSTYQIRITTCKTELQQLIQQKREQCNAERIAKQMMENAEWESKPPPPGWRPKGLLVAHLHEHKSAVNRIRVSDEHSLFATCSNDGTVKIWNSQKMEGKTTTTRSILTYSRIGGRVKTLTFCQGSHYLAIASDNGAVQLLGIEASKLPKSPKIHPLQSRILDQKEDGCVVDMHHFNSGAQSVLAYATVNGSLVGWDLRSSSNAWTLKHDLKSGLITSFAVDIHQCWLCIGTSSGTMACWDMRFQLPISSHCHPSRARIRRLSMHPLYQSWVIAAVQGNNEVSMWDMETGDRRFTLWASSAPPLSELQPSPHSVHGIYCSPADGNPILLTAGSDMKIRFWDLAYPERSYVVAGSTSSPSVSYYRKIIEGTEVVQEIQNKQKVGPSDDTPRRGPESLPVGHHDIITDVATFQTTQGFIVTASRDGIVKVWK

B1: human UVRAG, specific subunit of complex II (natural protein, UniProt Q9P2Y5 1-699, looked up)
chain: MSASASVGGPVPQPPPGPAAALPPGSAARALHVELPSQQRRLRHLRNIAARNIVNRNGHQLLDTYFTLHLCSTEKIYKEFYRSEVIKNSLNPTWRSLDFGIMPDRLDTSVSCFVVKIWGGKENIYQLLIEWKVCLDGLKYLGQQIHARNQNEIIFGLNDGYYGAPFEHKGYSNAQKTILLQVDQNCVRNSYDVFSLLRLHRAQCAIKQTQVTVQKIGKEIEEKLRLTSTSNELKKKSECLQLKILVLQNELERQKKALGREVALLHKQQIALQDKGSAFSAEHLKLQLQKESLNELRKECTAKRELFLKTNAQLTIRCRQLLSELSYIYPIDLNEHKDYFVCGVKLPNSEDFQAKDDGSIAVALGYTAHLVSMISFFLQVPLRYPIIHKGSRSTIKDNINDKLTEKEREFPLYPKGGEKLQFDYGVYLLNKNIAQLRYQHGLGTPDLRQTLPNLKNFMEHGLMVRCDRHHTSSAIPVPKRQSSIFGGADVGFSGGIPSPDKGHRKRASSENERLQYKTPPPSYNSALAQPVTTVPSMGETERKITSLSSSLDTSLDFSKENKKKGEDLVGSLNGGHANVHPSQEQGEALSGHRATVNGTLLPSEQAGSASVQLPGEFHPVSEAELCCTVEQAEEIIGLEATGFASGDQLEAFNCIPVDSAVAVECDEQVLGEFEEFSRRIYALNENVSSFRRPRRSSDK
notes: UVRAG, human; see Supplementary file 6; also called HsUVRAG; not shown: ZZ (only in pYO1018 and pYO1023)
As usually defined, the stoichiometry N is the number of molecules, sites or subunits per partner or assembly. Regarding B1, the “stoichiometry N” value was 1.

The values are drawn from paper PMC7326497, “Membrane characteristics tune activities of endosomal and autophagic human VPS34 complexes” (eLife, 2020).
